The DeepSol protein solubility set

Assay: soluble on expression in E. coli; label from the status in PepcDB or PDB records

Soluble on expression in E. coli, not soluble:
MGSDKIHHHHHHMLEQSIEAFKACVNDWLSAIAQLGEKPNRGNLHRFAYRAIRDKYPQLHSNVVQDAMNLAIEIYRSWLKNGGEFPKFRSDVIYFKGVDVRIENNGLVVPLMGRRVYLPLYVPKKYKKYLQYKHGRVIIKRVDKDWYALVSVNVPEKEPIKPVGTIGVDLGYYNLLVASDEKGRVVMRVQGDILIRHKEHMERLTARRQERLMKKFGIYARTNHKDRRFVNDLNHKIAKALVLKAKQLNRAIVLEKLKGLKKQRRPKLLRKILHLWSYADLIAKIVYKAKLYGVPVIFVSPRGTSKTCSNCGYYVRTFKDDRVFRCPKCGFVADRDYNASINIAKKGLEELRKRTFLPTLKDEASSPQGW, MGSDKIHHHHHHMLFPDLANKIVREVRRLIKENIIIINIQGVIIASTDIERIGQFHEGALRCAKQKKTVIITKEDERRLQGVKAGMNLPLLFHDEVIGVIGITGEPENISQYGEILRKMTELLIHENYFLEQLELEHRSYEAFVFDWLQNTDWSPSFLDRAKTLGIDLYKKKQLILFSIDRNDTMLQRKVWQHVRNLLTKEHLFIRWGNDRFILFTATNSKEQTYQFLKRLKQDCETLFSVPLYIGIGQSVTPSNMNLSYEQALQALSVSLETKNIVFNEDLRLEMCLQDISAETREQFLKRTIENLLSSPELMHTLRLFIDYNQSYKQTAEQLHIHINTLHYRLKKIEEYTGLDPKQFKDLNILYFSLLLLDNHTKKNDKTD, MGSDKIHHHHHHMLGMPTVLGVVLRMGRELWWCSLRPVSMLKEYAYCPRVAYYMEVLRPSYRPTEPMNLSREIYSVDHVRGILRSSGFRIVKEEWAVPLRSKRLGLQGVADGVVVEGSLGIIVVEAKLSVRSNRWLHTRGRHVIFQAAAYALALEETRGYSVDYLAIVSLEDSKTYVVKMSPSLRRDVIRLADDMNKTLDDGLEPPPKPGRKCVACRFRRVCQPWVAERGSER, MGSDKIHHHHHHMLGRSANGIFWLFRYLERAENSARAIEAGFRLALTRDASDASDEWRSLIVTLGLQNAYEAKYGPGFTGPHVFNFILRDRENPGSVLAMMEMARTNARMVRAGITREVWESVNDGWMKLREALARPVTETRLGDVLDLVRRQSTQVRGAIEGTMLRNEIYNFARLGSFIERADNTARILDVKYYVLLPSVSYVGSSLDNVQWENVLRSLAGERAYRWLNAGRMDPRGIAEFLILDERFPRSLAFCYSKLRSNLASLAREYGGEMHSHEILRDADTQLHTATIEAIFDQGLHEFIGKFIACNTALALQIQRDYRFTE, MGSDKIHHHHHHMLIPLYMRYHESLKPDPIIHDASALRLVPQIDYDFSKFDTAIRSSVGSAIRATYLDSLTKAFIQQHQQPIIVMIGCGLDARHERVGDIGKNVPFYELDLPDVIALRKQLMPPAENEILLAASAFDTDWMDELRSTYPQAQFLFVIEGVLMYFNEAQVKKLFEDLAVRFSGGEIAFDIGSTWMSRNSQKHHDVMKHMRAQFDYGCDDDHEMERWADNLHLISAKYMFDFPAWKRIGLLQAAIMWIVPFVRKSYRFLYYRIS, MGSDKIHHHHHHMLKKESIHFINKNRSLIVCEDNFVYLLPCIQLRNWISNFTISFPNQTIISDNYTIIPHGSVTLVFFYDATGLHSLLFGPTTKPKTVGNIANRCDVILIIEFQPAGFFPLIGIQQSELIDKVVPFSIINTSLDLEIKKIFNESLSIDKLILKLEELLISNIKIEYSYEFILAIQLIIQNSGNISSQEISKKVFYSSRHLNRLFNQYLGLSMKSFSRLVRINKSIKLLNNNKTSLMSICNELGFYDIPHFIKDFKIVCGITPQKYRANMSDFYSEIAKF, MGSDKIHHHHHHMLKLDKIQANKIVEKLMADIPYNINIMDERGKIIASGDSARIGERHRGAERAINERKNIEIYKDTSLEKKGTNEPIILNNHILGVVGISGEPDEVRKFTKLVRSIVLLLTEELNTQQEREKKKKQKNQFIQHLMHVDSSYSEALKLEALELYNLQLDDQNHCVLTKDKRLLSSYYPGHEIFEWENCYLVITSEPPQITKPVTEYLVISSEKATIQQMVQEAQNTYLLLSFLQLEKAKFYQAEDFFIQGIFNFPFHIELDFFETIQTIYDEYYETVIFFANHNLNINETSQVLHIHRNTLNYRLKRIHELTGMDPKVWQDFWKLFYYFAYCFKERFEK, MGSDKIHHHHHHMLKQLILENWKSFRYAELPLDPLTVLIGTNASGKSNVVEALEFLQRIARGENVEAALAGDKTLVSIRGGVEWAARKQETGFTLQTLIQGEDETQDYLYTVQIQTIPEVRVIQEQITFENINQDNVVYNKKHLTVKNPIFPTKSGLENLELHVDINDLMQFFPPDQNILLGDKDFLETLNNVLLPFRNKACKFVVASLKNIFILNPIASNMRNYSRLADDLESDASNIAGVLAALPDDLKLEIELTLSTYIKDLPEGDIKKVWAEKVGRFGTDAMLYCQEEWKPGHSTDIDARSMSDGTLRFLAILTALLTRPEGSQIVIEEIDNGLHPSRAKLLVKILREIGSKRNIDILLTTHNPALLDALGPDTVPFVVVAHRDAETGESKLTLLENIDNFSKLFASYSLGEMTTKGAIERSLSHSE, MGSDKIHHHHHHMLLEKLNWRYAAKKMDPAKVVSEDKVERIVEAARLAPTSSGLQPFEIIVVTNAEVREKIKAIGWNQSPITDGSHLLVFAAWDNYTAERINHMFDLVNEVRGFRNEGWENYRQMLLSAYPQRDPETNFEHAARQAYIAFGLALAQAAFEGVDATPMEGFDPKALDEILGLRERGLRSVTIAPLGYRQVEGDWLVNLQKVRRPRDQFVTEVK, MGSDKIHHHHHHMLLKPDQRLKLDDTDDNLFYAYPRFVTHVDEGFIQQLTDLYRERLQPNTRILDMMSSWVSHLPEEIKFAHVEGHGLNAEELGRNPQLNHYFVQNLNENPGLPLPDQEFDAVLNCVSVQYLQYPEAVFSEIHRILKPGGVAIISFSNRMFYQKAIQAWRDASEPGRLELVKRYFASVPGFSTPEIIARKSTAPNFLQWLGAPGGDPFYAAIAHREGFA, MGSDKIHHHHHHMLLREPDPMNVKEKQMQHTDDTRDIAGVQKPEAPSGRRALITGASSGLGIEFAELLAAQKMNLVLAARRKEPMEKLAEDLRRRHGVDILVEPIDLAAPGAAARLKDSLNERAIQIDILVNNAGYGLQGEFLKTPIERTTDMIQLNITALTELSYVFGRDMAARGSGEILLIASLLAFQPVPTYAAYAATKSYVLSFGEALHDELRTQGVVVTSLCPGHTETGFDAAAGAQVSPMLRLLTMKPRPVAEAGLEALAKGKASVIAGFMNKVVAFSTRLTPRSMQRASMRKVMVP, MGSDKIHHHHHHMLLSMNRVSNPFRATLGSTPPYLAGRRHEIEDFAEALDDGPGAHERISLITGLRGVGKTVLLNAFEEEARARSWWVISETATAGFTERIIDALFRKASEILHTHRRKLSGITLPSIGGIQFSDILEHQPKITLRSVLTEILSWQEEIDRKLGQDSVGLLITLDELHYHRREEVIDFGATIQHLVREDLNISVAMAGIPQSIKPLLASEEGKNPVTFLRRANRIDLGLIDNNEVRKALAEPVEKVGVTWESDALTDAAEACGGYPFMIQLIGQQCFKRKRSNFITVGSVAEAAVVAKRKLGQLVHEPALADLSEVDRTFLVAMAADDGPSTMSDIAQRLGVNSQYAGNYRRRLIDAEIITSSGYGQVDFELPYMREYLREHAVVDVFKQ, MGSDKIHHHHHHMLNKLCMYLERPELYKQSEINFWDDEYISKQLLKAHLDTNFEGASRNFNFIEDSVNWIVTVANPANYPKLLDLGCGPGLYAEKFAQKGYKVTGIDFSKRSINYAQNRNKETNLNINYLFQSYLNMNYNEEFDLATLIYCDYGALSTENRRLLMEKIYDSLKPGGKLILDVFTINKYNNFEEIKYWEINEDGGFWSNEKYMCLQDNCKYNDYNTLEQTLVITEKDENVFYVWNHYFSKESFLLEVENIGFKSVEFFSNVKGEAYSDDSMTMGLVLQK, MGSDKIHHHHHHMLQAFATQYIVESLGCETEIIDYTADRFNKHYPLDLGLFRFLIDAYQEKKKKAARTKFNDATFQNNIAKRKTSYVEFIHRRLHNIKEVSGFSNLCKLGSEYDAVLIGSDQKWHPGFSFGVDSSFRFVPKSVRTISYATSLGVSEYPKSYWRTSRKAWSRIDYLSVREKTGADIISKVCDNNIHAEVVVDPTYLISCEDWKKIFPVEKKFEDKYIFCYFLGNDEESKKCARRYANLKGLKLVSVVSNESYSEIDQEYADFLMTGESPDSFVNWIRGAECVFTDSFHGTAFSIMNEKQIYVFYRKNTGVKLQRHSRIDDILSLWEIKYRLITDKHREWDSYQEQPIDYTLVTQKVQSERERSMKFLKAALTF, MGSDKIHHHHHHMLQLNSPHVHNLFNTPFSAAIMDDVVIGLEVHVQLNRLRTKLFCSCPLNYHQSPPNTHVCPVCLGMPGAMPVINKEAVKAAVKVAMALNAEIQPFTVFDRKNYFYPDLPKGFQISQYDRPLALGGYVTIELDGQEKRIQLKRVHMEEDPGKLSYKGSITTAKYSLIDYNRSGAPLLEIVTEPVMNSPKEARLFLNKLRMILEYLEVFDGDLEGAMRVDANISIRGSGRVEIKNISSFKGVEKALSYEIMRQKNLLQRGRSVVRETRHFDEARNITVSLRSKEEEQDYRYFPEPDLVPVLTEEIVREVEGTLPEMPEEKRERLKRQYGIGDNFAKVLILDVKMADYFEEVAKLVDPKLAASWIVDVLRGELNYRDWSFAKCWEVFKPEEFAKLLKYFEEDRITEKGVVEVIRTKLDEGGEIDAIIQKKGLFAIPKEEIIKFCKEAIEENPKAVEDYLSGKRQALNFLVGQVMKKTRGRADPADTAKLIEEMLS, MGSDKIHHHHHHMLQQRIQSLEEQEHLPSLLSADAQELAHQLQEHQKKIFSPSAQKTMRLFSPAEAAAFIGIGEGYLRQIASEGHGPQPLSNGRRMYAMEDIDRIRRVLDEGSKTGKYIPHRRPGEKLQVVSVMNFKGGSGKTTTSAHLAQYLALRGYRVLAIDLDPQASLSALFGHQPELDVGEGETLYGAIRYEAPRPIAEVVRSTYTANLHLIPGNLELMEFEHETPKAMIAGSTETMFFARIGEVLSEIESFYDIVVIDCPPQLGFLTMSALCAATSVLITVHPQMLDVMSMSQFLSMTSELMAVVENAGGRTSYDWMRYLVTRFEPNDGPQSQMTGFMRAIFGNRMLQNAMVKSTAISDAGVTKQTLYEVERSQFIRGTYDRAMDSLSLVNAEIEEMIRRVWGRK, MGSDKIHHHHHHMLSRTASELFWMARYLERAESYARVLDVTWKLSMIPRHSQQSRDLALPLNLSMTHELFQARHARFTMSNLLNFFALDGNNPCSIYSCVEMAWNNAHAVRGSLSAEVWESINATRIELRTLRQQGLGELGSDGFFEWVKERVHLFRGAVIGTLLRNDALSFIGIGTLIERAFATTQLLLIKDQQLTNDPDPVREYYRLDTLLNAVSAREAYNSLYRQPVSRETVMELLILRNDIPRSLRASIADLVGELEKIANDRSYQPLRLAHQLNVDLRFSTRDDLAQADLQTTLNGLLARINALSDSIRQTYLEAL, MGSDKIHHHHHHMLSVPPDKSITHRALILSALAETESTLYNLLRCLDTERTHDILEKLGTRFEGDWEKMKVFPKPFAEPIEPLFCGNSGTTTRLMSGVLASYEMFTVLYGDPSLSRRPMRRVIEPLEMMGARFMARQNNYLPMAIKGNHLSGISYKTPVASAQVKSAVLLAGLRASGRTIVIEPAKSRDHTERMLKNLGVPVEVEGTRVVLEPATFRGFTMKVPGDISSAAFFVVLGAIHPNARITVTDVGLNPTRTGLLEVMKLMGANLEWEITEENLEPIGTVRVETSPNLKGVVVPEHLVPLMIDELPLVALLGVFAEGETVVRNAEELRKKESDRIRVLVENFKRLGVEIEEFKDGFKIVGKQSIKGGSVDPEGDHRMAMLFSIAGLVSEEGVDVKDHECVAVSFPNFYELLERVVIS
